We go through two molecules from patent US8003342.

Assay [1] has as its target T1, rat brain farnesyl:protein transferase (rat, UniProt Q04631 2-377; Q02293 1-437). The assay can be described thus: cell-based or functional assay.
The target of assay [2] is T1, rat brain farnesyl:protein transferase. The assay can be described thus: cell-based or functional assay. The source holds these as a separate data set.

With CVAM, in assay [1], the “fold decrease of affinity against CVIM, from the concentration required for 50% inhibition” value was determined as 30 fold.

For the molecule CIKS, in assay [2], the “Concentration for 50% Inhibition” value was 100 µM.
